# Laboratory results as given in article PMC13334471 (Journal of molecular and cellular cardiology, 2026).
# B1: Wild-type human cTnT-C14 peptide (C-terminal end 14 amino acids, residues 275-288, of cardiac troponin T) (peptide, UniProt P45379-6 275-288, looked up)
# peptide: SKTRGKAKVTGRWK
# B2: Human cTnT-C14 peptide containing HCM-linked mutation R278C (peptide, UniProt P45379-6 275-288, looked up)
# peptide: SKTCGKAKVTGRWK
# B3: Human cTnT-C14 peptide containing HCM-linked mutation K280N (peptide, UniProt P45379-6 275-288, looked up)
# peptide: SKTRGNAKVTGRWK
# B4: Human cTnT-C14 peptide containing HCM-linked mutation R286C (peptide, UniProt P45379-6 275-288, looked up)
# peptide: SKTRGKAKVTGCWK
# Target: F-actin-Tm composite thin filament (rabbit, UniProt P68135 1-377; P58772 1-284)
# Assay: SPR
Maximum Signal (Δpm),koff,kon,Binder
434 Δpm,0.0362 s⁻¹,5270 M⁻¹ s⁻¹,B1
134 Δpm,0.02 s⁻¹,3930 M⁻¹ s⁻¹,B2
109 Δpm,0.041 s⁻¹,6450 M⁻¹ s⁻¹,B3
126 Δpm,0.0256 s⁻¹,3850 M⁻¹ s⁻¹,B4

# Target: F-actin from rabbit back muscle (rabbit, UniProt P68135 1-377)
# Assay: SPR
Maximum Signal (Δpm),koff,kon,Binder
397 Δpm,0.0278 s⁻¹,4150 M⁻¹ s⁻¹,B1
144 Δpm,0.0169 s⁻¹,1450 M⁻¹ s⁻¹,B2
112 Δpm,0.0415 s⁻¹,3810 M⁻¹ s⁻¹,B3
112 Δpm,0.0172 s⁻¹,1570 M⁻¹ s⁻¹,B4

# Target: Rabbit cardiac α-tropomyosin (rabbit, UniProt P58772 1-284)
# Assay: SPR
Maximum Signal (Δpm),koff,kon,Binder
420 Δpm,0.0374 s⁻¹,5910 M⁻¹ s⁻¹,B1
95.4 Δpm,0.0219 s⁻¹,2500 M⁻¹ s⁻¹,B2
108 Δpm,0.0351 s⁻¹,6600 M⁻¹ s⁻¹,B3
114 Δpm,0.0166 s⁻¹,3110 M⁻¹ s⁻¹,B4
